Where no end group is shown, it is not given here. [ ]: non-standard residue; d: D form.
T1: GST-tagged TRIB3 (human, UniProt Q96RU7 1-358)
T1 construct: purified recombinant TRIB3; also called TRIB3-GST; TRIB3 protein; source: bought: Sinobiological (10731-H09B), purified
T1 sequence (looked up): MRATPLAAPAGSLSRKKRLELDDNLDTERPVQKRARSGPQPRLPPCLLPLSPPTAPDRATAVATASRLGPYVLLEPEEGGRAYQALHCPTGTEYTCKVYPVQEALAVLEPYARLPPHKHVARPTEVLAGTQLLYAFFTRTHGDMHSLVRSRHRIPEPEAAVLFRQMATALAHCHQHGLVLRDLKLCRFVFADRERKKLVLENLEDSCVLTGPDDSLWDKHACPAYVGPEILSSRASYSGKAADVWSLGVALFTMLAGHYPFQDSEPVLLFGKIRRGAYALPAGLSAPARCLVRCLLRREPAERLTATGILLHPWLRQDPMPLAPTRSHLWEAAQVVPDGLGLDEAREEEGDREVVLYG

T2: UBE3B (His-tagged), recombinant (human, UniProt Q7Z3V4 1-1068)
T2 construct: recombinant UBE3B; also called purified UBE3B; source: Freestyle 293-F cells, transient transfection, purified (Ni-NTA, Superdex 200)
T2 sequence (looked up): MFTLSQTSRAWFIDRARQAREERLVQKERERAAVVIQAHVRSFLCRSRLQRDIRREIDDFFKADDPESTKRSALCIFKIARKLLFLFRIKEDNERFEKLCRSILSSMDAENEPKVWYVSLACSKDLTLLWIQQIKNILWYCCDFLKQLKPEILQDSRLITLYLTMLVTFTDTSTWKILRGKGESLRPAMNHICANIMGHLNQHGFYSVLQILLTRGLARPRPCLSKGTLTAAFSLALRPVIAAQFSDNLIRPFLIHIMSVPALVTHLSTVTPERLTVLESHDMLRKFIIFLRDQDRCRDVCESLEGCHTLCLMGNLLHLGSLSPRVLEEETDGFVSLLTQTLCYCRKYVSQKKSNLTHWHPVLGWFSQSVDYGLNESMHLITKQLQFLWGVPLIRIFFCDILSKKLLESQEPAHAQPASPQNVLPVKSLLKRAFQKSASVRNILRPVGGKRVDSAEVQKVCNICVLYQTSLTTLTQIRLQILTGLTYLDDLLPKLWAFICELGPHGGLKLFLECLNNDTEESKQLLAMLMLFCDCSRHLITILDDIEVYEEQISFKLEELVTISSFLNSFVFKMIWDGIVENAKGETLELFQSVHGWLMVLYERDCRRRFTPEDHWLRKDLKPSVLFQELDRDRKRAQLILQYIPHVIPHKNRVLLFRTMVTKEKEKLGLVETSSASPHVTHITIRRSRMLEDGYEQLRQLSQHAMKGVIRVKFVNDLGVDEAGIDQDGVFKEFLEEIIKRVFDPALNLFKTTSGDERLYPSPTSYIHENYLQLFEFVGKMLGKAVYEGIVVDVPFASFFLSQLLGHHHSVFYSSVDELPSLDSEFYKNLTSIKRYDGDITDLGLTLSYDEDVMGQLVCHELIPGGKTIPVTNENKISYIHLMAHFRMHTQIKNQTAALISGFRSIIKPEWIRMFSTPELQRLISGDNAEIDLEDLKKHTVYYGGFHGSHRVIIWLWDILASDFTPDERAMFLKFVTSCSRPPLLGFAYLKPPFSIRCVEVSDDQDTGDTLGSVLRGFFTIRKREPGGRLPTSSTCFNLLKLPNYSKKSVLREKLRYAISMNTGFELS


What was measured:
[1] = target: T1, GST-tagged TRIB3; assay: SPR; BIAcore T200; TRIB3 immobilised directly on a CM5 chip; 0–200 nM peptide passed over; HBS-EP pH 7.4, 25 °C, 25 μl/min; details: both partners purified
[2] = target: T2, UBE3B (His-tagged), recombinant; assay: co-IP; in vitro co-IP: purified His-tagged UBCH3 (5 μg) and His-tagged UBE3B (5 μg) with GST-tagged TRIB3 or the KD(C) domain; 1% NP-40, 120 mM NaCl, 40 mM tris-HCl pH 7.4, 6 h at 4 °C; details: both partners purified

Row | Kd [1] | binding result [2] | Binder
1 | 76.4 nM | – | [dK][dR][dR][dE][dQ][dL][dK][dH][dK][dL][dE][dQ][dL][dR] (α-helical peptide derived from the C terminus of MYC; source: synthetic peptide (Chinese Peptide Inc., >98% purity)) [CM4 peptide]
2 | – | binds | purified His-tagged UBCH3 (enzyme, UniProt P49427 1-236, looked up, UBCH3 (CDC34), purified; also called UBCH3 (E2); UHCH3) MARPLVPSSQKALLLELKGLQEEPVEGFRVTLVDEGDLYNWEVAIFGPPNTYYEGGYFKARLKFPIDYPYSPPAFRFLTKMWHPNIYETGDVCISILHPPVDDPQSGELPSERWNPTQNVRTILLSVISLLNEPNTFSPANVDASVMYRKWKESKGKDREYTDIIRKQVLGTKVDAERDGVKVPTTLAEYCVKTKAPAPDEGSDLFYDDYYEDGEVEEEADSCFGDDEDDSGTEES
